Test results taken from the RNAGym collection of RNA variant scans (doi:10.1093/molbev/msab373).

B1: Azoarcus group I ribozyme (parent)
chain: GUGCCUUGCGCCGGGAAACCACGCAAGGGAUGGUGUCAAAUUCGGCGAAACCUAAGCGCCCGCCCGGGCGUAUGGCAACGCCGAGCCAAGCUUCGGCGCCUGCGCCGAUGAAGGUGUAGAGACUAGACGGCACCCACCUAAGGCAAACGCUAUGGUGAAGGCAUAGUCCAGGGAGUGGCGAAAGUCACACAAACCGG

Variants of: B1
Assay: reverse-splicing fitness (ratio to wild type); higher = more active; in vitro selection; Mg2+ level not given
Outline: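 An in vitro group I ribozyme library with randomized positions was T7-transcribed and gel-purified. In triplicate, 10 pmol RNA in EPPS pH 7.5 was reacted with 50 pmoles of a 30-nt RNA substrate for 1 h at 37 °C across several added MgCl2 levels (1–48 mM), then stopped with EDTA. Products were reverse transcribed from a substrate-complementary primer, PCR-amplified and sequenced (HiSeq 4000). Fitness is a variant's read proportion after selection over that before, normalised to wild type.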

Variant | reverse-splicing fitness
A111G A120U A145C C169G U176A | 0.00876
A111G A120U A145C C169G U176C | 0.00699
A111G A120U A145C C169G U176G | 0.00205
A111G A120G A145G C169A U176G | 0.00474
A111G A120G A145G C169A U176A | 0.0489
A111G A120G A145G C169A U176C | 0.0746
A111G A120U A145G | 0.667
A111G A120U A145C | 0.701
A111G A120U A145C C150A C169U | 0.00746
A111G A120U A145C C150A C169G | 0.0049
A111G A120U A145C C150A C169A | 0.00208
A111G A120U A145C C169A U176C | 0.0018
A111G A120U A145C C169A U176A | 0.00226
A111G A120U A145C C169A U176G | 0.0014
A111G A120G A145U C150G U176C | 0.0217
A111G A120G A145U C150G U176G | 0.00354
A111G A120G A145U C150G U176A | 0.0126
A111G A120G A145C C169A U176C | 0.0567
A111G A120G A145C C169A U176G | 0.00382
A111G A120G A145C C169A U176A | 0.0345
A111G A120U A145G C150U U176C | 0.285

Variant | reverse-splicing fitness
A111G A120U A145G C150U U176G | 0.0427
A111G A120U A145G C150U U176A | 0.237
A111G A120G A145U C150A C169U | 0.0268
A111G A120G A145U C150A C169A | 0.018
A111G A120G A145U C150A C169G | 0.0305
A111G A120G A145U C169G U176A | 0.0761
A111G A120G A145U C169G U176C | 0.106
A111G A120G A145U C169G U176G | 0.00712
A111G A120U A145G C150U C169G U176C | 0.0118
A111G A120U A145G C150U C169G U176G | 0.00263
A111G A120U A145G C150U C169G U176A | 0.0113
A111G A120G A145U C169A U176C | 0.0642
A111G A120G A145U C169A U176G | 0.00646
A111G A120G A145U C169A U176A | 0.0397
A111G A120U A145G C150U C169A U176C | 0.00357
A111G A120U A145G C150U C169A U176A | 0.00469
A111G A120U A145G C150U C169A U176G | 0.00246
A111G A120U A145G C150A C169A U176C | 0.00368
A111G A120U A145G C150A C169A U176A | 0.00539
A111G A120U A145G C150A C169A U176G | 0.00273
A111G A120G A145G C150G | 0.0366

Variant | reverse-splicing fitness
A111G A120G A145G C150A | 0.0452
A111G A120G A145G C150U | 0.244
A111G A120G A145G C150G C169U | 0.0343
A111G A120G A145G C150G C169G | 0.0306
A111G A120G A145G C150G C169A | 0.0213
A111G A120U A145G C150G C169U U176C | 0.00697
A111G A120U A145G C150G C169U U176G | 0.00319
A111G A120U A145G C150G C169U U176A | 0.00497
A111G A120G A145U C150A C169U U176G | 0.00518
A111G A120G A145U C150A C169U U176C | 0.0198
A111G A120G A145U C150A C169U U176A | 0.0273
A111G A120G U176G | 0.0093
A111G A120G U176C | 0.117
A111G A120G U176A | 0.0836
A111G A120G A145U C150U U176C | 0.0782
A111G A120G A145U C150U U176A | 0.0608
A111G A120G A145U C150U U176G | 0.00788
A111G A120G C150G C169U U176A | 0.0138
A111G A120G C150G C169U U176G | 0.00593
A111G A120G C150G C169U U176C | 0.0166
A111G A120G C150U C169G U176C | 0.0735

Variant | reverse-splicing fitness
A111G A120G C150U C169G U176G | 0.00531
A111G A120G C150U C169G U176A | 0.0529
A111G A120G C150G C169G U176C | 0.00503
A111G A120G C150G C169G U176A | 0.0075
A111G A120G C150G C169G U176G | 0.00386
A111G A120U A145C C150U C169A U176C | 0.00228
A111G A120U A145C C150U C169A U176G | 0.00196
A111G A120U A145C C150U C169A U176A | 0.00259
A111G A120G A145G C150A C169A U176G | 0.00569
A111G A120G A145G C150A C169A U176C | 0.0283
A111G A120G A145G C150A C169A U176A | 0.0193
A111G A120G A145U C150G C169A U176G | 0.00435
A111G A120G A145U C150G C169A U176C | 0.0123
A111G A120G A145U C150G C169A U176A | 0.0101
A111G A120U A145C C150A C169A U176C | 0.00206
A111G A120U A145C C150A C169A U176A | 0.00282
A111G A120U A145C C150A C169A U176G | 0.00177
A111G A120G A145C C150U C169U U176G | 0.00645
A111G A120G A145C C150U C169U U176C | 0.0306
A111G A120G A145C C150U C169U U176A | 0.0353
